Experiments:
HIV-1 gp120 = HIV-1 gp120 (Human immunodeficiency virus type 1 group M subtype B, UniProt P04578); conditions: gp120 5 μg/ml, co-incubation
IL-16 = molecular target: T1, IL-16 (Mus musculus, UniProt O54824); assay: IL-16-induced migration of human T-cells; format: cell-based; conditions: for inhibition of IL-16-mediated biological activity (migration of human T-cells): concentration not given; for effect on IL-16-induced migration of human T-cells: any concentration
T1 construct: polyhistidine fusion protein containing the 119 C-terminal residues encoded by the previously reported murine cDNA; polyhistidine (cleaved yes); made in house
T1 sequence (O54824 1204-1322): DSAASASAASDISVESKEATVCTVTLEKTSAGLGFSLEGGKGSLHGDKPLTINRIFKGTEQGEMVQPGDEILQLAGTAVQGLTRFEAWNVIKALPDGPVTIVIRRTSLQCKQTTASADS

anti-CD4 antibody (OKT4) = assay: OKT4-induced migration of T-cells; format: cell-based; conditions: OKT4 1 μg/ml, co-incubation
rIL-16 = molecular target: T2, rIL-16 (Mus musculus, UniProt O54824); assay: IL-2R (CD25) induction on rIL-16-stimulated murine splenocytes, flow cytometry; format: cell-based; conditions: for % IL-2R+ CELLS: IL-16 + peptide, concentration not given (10^-6 M or 10^-7 M)
T2 construct: polyhistidine fusion protein containing the 119 C-terminal residues encoded by the previously reported murine cDNA; polyhistidine (cleaved yes); made in house; host or cells: Escherichia coli strain HMS 174, vector pET16b
T2 sequence (O54824 1204-1322): T1 sequence (O54824 1204-1322)
Method: Induction of IL-2R (CD25) on rIL-16-stimulated murine splenocytes was detected by staining with FITC-conjugated anti-mouse IL-2R Ab (PharMingen). Cells were fixed with 10% formalin and stored at 4° C. in the dark before analysis with a Becton Dickinson FACScan 440 flow cytometer. The % IL-2R^+ cells was determined by subtracting the % isotype control positive from the total % positive events.
Peptides A (SEQ ID NO:15) and C (SEQ ID NO:19) were inhibitory at 10^−7 M, but not 10^−6 M. The negative control peptide D (SEQ ID NO:20) (10^−6 M) had no effect on rIL-16-stimulated IL-2R expression.
Murine splenocytes were incubated in control buffer, rIL-16 alone, or rIL-16 plus the indicated peptide. IL-2R expression was determined by flow cytometry using FITC-conjugated anti-IL-2R antibody. The % IL-2R^+ was determined by subtracting the FITC-conjugated isotype control antibody binding from the FITC-conjugated anti-IL-2R antibody binding. Isotype control antibody binding ranged from 1% to 4%.

murine rIL-16 = molecular target: T3, murine rIL-16 (Mus musculus, UniProt O54824); assay: murine rIL-16-stimulated murine splenocyte migration, modified Boyden chamber; format: cell-based; conditions: rIL-16 10^-9 M; for inhibition of rIL-16-induced splenocyte migration: peptide 10^-6 M; for IL-16-inhibitory activity (block of murine rIL-16-stimulated murine splenocyte migration): peptide concentration not given
T3 construct: polyhistidine fusion protein containing the 119 C-terminal residues encoded by the previously reported murine cDNA; polyhistidine (cleaved yes); made in house; host or cells: Escherichia coli strain HMS 174, vector pET16b
T3 sequence (O54824 1204-1322): T1 sequence (O54824 1204-1322)
Method: Cell migration was assessed using a modified Boyden chamber. […] Cell migration is expressed as the mean % control migration.
Results from multiple experiments were analyzed using Student's t test for paired variables, and Tukey's test for multiple variables. A P value<0.05 was considered significant.
Peptide B (aa 341-352) includes the sequence WQCLLS (residues 344-349, SEQ ID NO:4) which is 100% conserved in all the species examined. Peptide A (aa 327-338) and peptide C (aa 351-362) correspond to the N-terminal and C-terminal flanks of peptide B, respectively. A random scrambled 12-residue peptide (LSKQKMVSREGT) designated peptide D (SEQ ID NO:20) was used a negative control for nonspecific effects of peptide administration on splenocyte motility. Criteria for the design of peptide D included overall hydrophilicity, neutral charge and no cysteine residues (to prevent possible dimer formation).
Murine spleens were harvested from healthy 8-week male BALB/c mice (Jackson Laboratory). Splenocytes were isolated by grinding spleens between fiysted slides in M199 culture medium (M. A. Bioproducts), supplemented with 0.4% bovine serum albumin, 22 mM HEPES buffer, 100 with U/ml of penicillin, 100 μg/ml streptomycin (M199-HPS). Cells were washed and erytbrocytes were lysed in Gey's solution. Splenocytes were washed twice in M199, and resuspended to a final concentration of 2×10^6 cells/ml in RPMI1640 medium (BioWhittaker) supplemented with 10% FBS, 100 U/ml of penicillin and 100 μg/ml of streptomycin. By flow cytometry, 25% of the isolated splenocytes within the lymphocyte-cloud were CD4^+.
Recombinant murine IL-16 was produced in Escherichia coli (strain HMS 174; Novagen) as a polyhistidine fusion protein containing the 119 C-terminal residues encoded by the previously reported murine cDNA (Keane et al., (1998) J. Immunol. 160: 5945-5954), using the bacterial expression vector pET16b (Novagen). The recombinant product corresponds to the secreted form of natural murine IL-16 following cleavage by caspase-3 (Zhang et al. (1998) J. Biol. Chem. 273:1144-1149). The rIL-16 was purified by metal chelation chromatography, and the polyhistidine tag was cleaved with factor Xa (New England Biolabs).

[1] = molecular target: T4, rIL-16 / GST-murine D3D4 fusion protein (Mus musculus, UniProt O54824); assay: in vitro binding of 35S-labeled murine rIL-16 to GST-murine D3D4 fusion protein; conditions: each peptide 10^-5 M, 10 ug/ml
T4 construct: murine IL-16 cDNA construct in pET-16b expressing the C-terminal 119 amino acids of IL-16; polyhistidine (pET-16b vector); made in house; host or cells: IL-16: coupled in vitro transcription-translation (TNT T7, Promega); GST-D3D4: E. coli, vector pGEX-5X.1
T4 sequence (O54824 1205-1322 limits assumed): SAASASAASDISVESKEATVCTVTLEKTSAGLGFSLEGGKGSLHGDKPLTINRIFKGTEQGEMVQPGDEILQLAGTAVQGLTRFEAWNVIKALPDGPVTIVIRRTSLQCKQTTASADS
Method: Complexes were isolated by centrifugation, then bound rIL-16 was released by boiling in SDS-PAGE buffer, resolved by SDS-PAGE, and detected by autoradiography. Specificity of the interaction between rIL-16 and D3D4 was assessed by competition with an excess of unlabeled rIL-16. ^35S-labeled rIL-16 incubated with GST (lane 1); ^35S-labeled rIL-16 incubated with GST-D3D4 (lane 2); ^35S-labeled rIL-16 plus excess unlabelled rIL-16 incubated with GST-D3D4 (lane 3); ^35S-labeled rIL-16 plus10 ug/ml peptide A (lane 4); ^35S-labeled rIL-16 plus 10 ug/ml peptide B (lane 5); ^35S-labeled rIL-16 plus 10 ug/ml peptide C (lane 6); ); ^35S-labeled rIL-16 plus 10 ug/ml peptide A and peptide B (lane 7). The arrow indicates the position of IL-16 on the gel. The identity of this band was re-confirmed by immunoblotting with anti-IL-16 antibody.
Radiolabeled murine IL-16 was prepared by in vitro translation and transcription (TNT T7, Promega) of a murine IL-16 cDNA construct in pET-16b expressing the C-terminal 119 amino acids of IL-16. Each coupled transcription-translation reaction was conducted in medium supplemented with [^35S]methionine according to the manufacturer's instructions.
A glutathione-S-transferase (GST)-murine D3D4 fusion protein was produced by subcloning the murine D3D4 domain cDNA sequences encoding the CD4 protein open reading frame from Phe^182 to Phe^372 into pGEX-5X.1 (Pharmacia). The GST-D3D4 fusion protein was purified according to the Pharmacia GST-fusion protein purification protocol using glutathione-conjugated Sepharose 4B beads in the presence of 2 mM dTT. […]
To investigate IL-16 interaction with the D3D4 of CD4, the GST-D3D4 fusion protein, or GST alone, was bound to the glutathione-conjugated Sepharose 4B beads. […] The GST-D3D4 or GST proteins were released from the beads by boiling in SDS gel loading buffer, and the supernatant was analyzed by 12% SDS-polyacrylamide gel electrophoresis (SDS-PAGE). The presence of ^35S-labeled mrIL16 was detected by autoradiography of the dried gel. […]

[2] = first line of the peptide's pair
[3] = second line of the peptide's pair

Row | Substance | % IL-2R+ CELLS (rIL-16; [2]) | % IL-2R+ CELLS (rIL-16; [3]) | inhibition of IL-16-stimulated induction of IL-2R (rIL-16; peptide 10^-7 M) | IL-16-inhibitory activity (block of murine rIL-16-stimulated murine splenocyte migration) (murine rIL-16) | IL-16 binding to GST-D3D4 in the presence of peptide [1] | further results
1 | CLLS (OTHER INFORMATION: Description of Artificial Sequence:IL-16 antagonist peptide) [aa 347-350 of human CD4 D4] |  |  |  |  |  | effect on HIV-1 gp120-induced migration (HIV-1 gp120): unaffected; IL-16-induced migration of human T-cells blocked (IL-16; co-incubation of IL-16 and peptide): approximately 90%; effect on anti-CD4 antibody OKT4-induced migration (anti-CD4 antibody (OKT4)): unaffected
2 | DSGQVLLE (OTHER INFORMATION: Description of Artificial Sequence:IL-16 antagonist peptide) [aa 351-358 of human CD4] |  |  |  |  |  | inhibition of IL-16-mediated biological activity (migration of human T-cells) (IL-16): failed to inhibit
3 | GMWQCLLS (OTHER INFORMATION: Description of Artificial Sequence:IL-16 antagonist peptide) [aa 343-350 of human CD4] |  |  |  |  |  | inhibition of IL-16-mediated biological activity (migration of human T-cells) (IL-16): inhibited all
4 | GMWQCLLSDSGQVLLE (OTHER INFORMATION: Description of Artificial Sequence:IL-16 antagonist peptide) [aa 343-358 of human CD4 D4] |  |  |  |  |  | concentration at which maximal inhibition was achieved (IL-16; dose curve, IL-16-induced migration of human T-cells): ≥ 10 µg/mL; block of IL-16-induced migration of human T-cells (IL-16; peptide 10^-10 M): blocked all
5 | KVSKREKAVWVLNPEA (OTHER INFORMATION: Description of Artificial Sequence:IL-16 antagonist peptide) [16-mer of human CD4 D4] |  |  |  |  |  | effect on IL-16-induced migration of human T-cells (IL-16): failed to effect
6 | TSPKLMLSLKLENKEA (OTHER INFORMATION: Description of Artificial Sequence:IL-16 antagonist peptide) [16-mer of human CD4 D4] |  |  |  |  |  | effect on IL-16-induced migration of human T-cells (IL-16): failed to effect

More lines, main results first:

Row | % IL-2R+ CELLS (rIL-16; [2]) | % IL-2R+ CELLS (rIL-16; [3]) | inhibition of IL-16-stimulated induction of IL-2R (rIL-16; peptide 10^-7 M) | IL-16-inhibitory activity (block of murine rIL-16-stimulated murine splenocyte migration) (murine rIL-16) | IL-16 binding to GST-D3D4 in the presence of peptide [1] | Substance | further results
7 | 20% | 35% | inhibitory | IL-16-inhibitory activity | failed to reduce IL-16 binding | GDKVKMDSRIQV [peptide C, 12-residue peptide, aa 351-362 of mouse CD4 D4] | inhibition of rIL-16-induced splenocyte migration (murine rIL-16): inhibit
8 | 22% | 26% | completely inhibited | IL-16-inhibitory activity | reduced to background | TGLWQCLLSEGD (OTHER INFORMATION: Description of Artificial Sequence:IL-16 antagonist peptide) [peptide B, 12-residue peptide, aa 341-352 of mouse CD4 D4] | inhibition of IL-16-stimulated induction of IL-2R (rIL-16; peptide 10^-6 M): completely inhibited
9 | 21% | 37% | inhibitory | IL-16-inhibitory activity | reduced to background | VSEEQKVVQVVA (OTHER INFORMATION: Description of Artificial Sequence:IL-16 antagonist peptide) [peptide A, 12-residue peptide, aa 327-338 of mouse CD4 D4] | inhibition of rIL-16-induced splenocyte migration (murine rIL-16): inhibited

Source: patent publication US6723697B2, “IL-16 antagonists” (Research Corporation Technologies, Inc., priority 1999, dated 2004)
